The values below come from patent US20230416362A1 (published 2023).

By EC50 is commonly meant the concentration that produces a half-maximal response.

Holding throughout (assay): ELISA
One assay has as its target cyno TIGIT IgV domain.
Assay [1] concerns the target T1, recombinant human TIGIT IgV domain (UniProt Q495A1 22-141).
T1 chain: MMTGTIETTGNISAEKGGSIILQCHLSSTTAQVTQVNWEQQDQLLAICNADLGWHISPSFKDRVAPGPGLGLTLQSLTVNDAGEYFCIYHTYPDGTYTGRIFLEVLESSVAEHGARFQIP

For assay [2], the target named is T2, recombinant mouse TIGIT IgV domain (UniProt P86176 29-145).
T2 chain: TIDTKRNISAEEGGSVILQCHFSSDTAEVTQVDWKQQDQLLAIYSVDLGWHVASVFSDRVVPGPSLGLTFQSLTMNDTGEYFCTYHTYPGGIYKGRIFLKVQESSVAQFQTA

Chain of cyno TIGIT IgV domain (Q495A1 other isoform, or with tags, fused parts or gaps): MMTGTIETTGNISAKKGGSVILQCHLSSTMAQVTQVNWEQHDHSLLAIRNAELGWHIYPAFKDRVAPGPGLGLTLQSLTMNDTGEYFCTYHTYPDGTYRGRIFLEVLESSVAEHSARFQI

B1: 7D4 (antibody, V domains shown)
VH: QVQLKHSGAELVRPGTSVKMSCKASGYTFTNYWIGWAKQRPGHGLEWIGDIYPGSSFTNSNEKFKGKATLTADKSSSTAYMQFSSLTSEDSAIYYCAKLGRGYWYFDVWGTGTSVTVSA
VL: DIVLTQSPAIMSASLGEEITLTCSASSSVSYIHWYQQKSGTSPKLLIYTTSNLASGVPSRFSGSGSGTFYSLTISSVEAEDAADYYCHQWSRYPTFGGGTKLEIK
Regarding B1, the 50% effective concentration (EC50) with cyno TIGIT IgV domain was determined as 21.3 nM; in assay [1], 0.13 nM.

B2: 3A9 (antibody, V domains shown)
VH: QVQLQQPGAELVRPGSSVKLSCKASGYTFTSYWMHWVKQRPIQGLEWIGNIDPSDSATHYNQKFKDKATLTVDKSSSTAYMHLSSLTSEDSAVYYCARTGIDYGSSYFDYWGQGTILTVSS
VL: DIVLTQSPASLAVSLGQRATISCRASQSVSTSSYSYIHWYQQKPGQPPKLLIKYASNLESGVPARFSGSGSGTDFTLNIHPVEEEDTATYYCQHNWEIPRTFGGGTKLEIK
Take B2: the EC50 is 4.46 nM with cyno TIGIT IgV domain, 0.38 nM in assay [1] and 172 nM in assay [2].

B3: 2C9 (antibody, V domains shown)
VH: DIQLKQSGAELVRPGASVKLSCKASGYTFTDSYINWVKQRPGQGLEWIARFYPGSGNTYYNEKFKGKATLTAEKSSSTAYMQLSSLTSEDSAVYFCAREAWLLFYGMDYWGQGTTVTVSS
VL: DIVLTQSPAIMSASPGEKVTISCSANSSVSYMYWYQQKPGSSPKPWIYRTSNLASGVPARFSGSGSGTSYSLTISSMEAEDAATYYCQQYHSYPLTFGAGTKLELK
Regarding B3, the EC50 with cyno TIGIT IgV domain was found to be 69.9 nM; in assay [1], 0.23 nM; in assay [2] it was 138 nM.
